The results in this text go back to US20080160018A1.

Assay [1] addresses human IL-2 receptor (p55 Tac protein) on HUT-102 cells (human) (UniProt P01589). In words: cell-based or functional assay.
The target is the same in assay [2]. In words: competition with radioiodinated mouse anti-Tac on HUT-102 cells.
Assay [3] addresses gH glycoprotein of cytomegalovirus on CMV-infected HEL cells (cytomegalovirus (CMV)) (UniProt P12824). Kind of assay: immunostaining of CMV-infected HEL cells, 2-fold dilutions, HRP secondary.

Sequence of human IL-2 receptor (p55 Tac protein) on HUT-102 cells (human) (P01589 22-272): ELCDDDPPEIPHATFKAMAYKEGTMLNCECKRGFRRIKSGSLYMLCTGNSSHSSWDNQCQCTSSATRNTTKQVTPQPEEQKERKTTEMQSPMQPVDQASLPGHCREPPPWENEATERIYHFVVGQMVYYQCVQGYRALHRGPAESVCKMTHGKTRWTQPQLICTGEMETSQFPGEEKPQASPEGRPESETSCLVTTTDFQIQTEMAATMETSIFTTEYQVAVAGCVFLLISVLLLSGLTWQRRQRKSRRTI

B1: mouse anti-Tac antibody (antibody, V domains shown)
VH: QVQLQQSGAELAKPGASVKMSCKASGYTFTSYRMHWVKQRPGQGLEWIGYINPSTGYTEYNQKFKDKATLTADKSSSTAYMQLSSLTFEDSAVYYCARGGGVFDYWGQGTTLTVSS
VL: QIVLTQSPAIMSASPGEKVTITCSASSSISYMHWFQQKPGTSPKLWIYTTSNLASGVPARFSGSGSGTSYSLTISRMEAEDAATYYCHQRSTYPLTFGSGTKLELK
As for B1, in assay [1], the Percent 51Cr release after ADCC, effector:target ratio 30:1 was found to be 4% and the Percent 51Cr release after ADCC, effector:target ratio 100:1 is less than 1%.

B2: CDR-only humanized anti-Tac antibody (antibody, V domains shown)
VH: QVQLVQSGAEVKKPGSSVKVSCKASGGTFSSYRMHWVRQAPGQGLEWMGYINPSTGYTEYNQKFKDRVTITADESTNTAYMELSSLRSEDTAFYFCAGGGGVFDYEYNGGLVTVSS
VL: DIQMTQSPSTLSASVGDRVTITCSASSSISYMHWYQQKPGKAPKLLMYTTSNLASGVPSRFIGSGSGTEFTLTISSLQPDDFATYYCHQRSTYPLTFGQGTKVEVK
For B2, the fold reduction of binding affinity compared to the PDL humanized anti-Tac antibody in assay [2] is greater than 100 fold.

B3: mouse CMV5 antibody (antibody, V domains shown)
VH: EVQLQQSGPELVKPGASMKISCKASVYSFTGYTMNWVKQSHGQNLEWIGLINPYNGGTSYNQKFKGKATLTVDKSSNTAYMELLSLTSADSAVYYCTRRGFRDYSMDYWGQGTSVTVSS
VL: DIVLTQSPATLSVTPGDSVSLSCRASQSISNNLHWYQQKSHESPRLLIKYASQSISGIPSRFSGSGSGTDFTLSVNGVETEDFGMYFCQQSNSWPHTFGGGTKLEIK
Turning to B3, the least amount of antibody that produced a detectable precipitate in assay [3] turned out to be 63 ng/mL.
